The record followed here is the supplement of paper PMC7125110.

± gives the standard error. For some assays here: Variants at the floor of the assay were thinned out.

To fix the notation:
B1: glmS ribozyme (parent)
chain: AUAAAAGCGCCAGAACUACAGAAAUGUAGUUGACGAGGAGGAGGUUUAUCGAAUUUUCGGCGGAUGCCUCCAAA

What all share (conditions): with glucosamine-6-phosphate
In series [1] the parent is B1. The series can be described thus: kcat; higher = faster cleavage; RNA array. The gist of the method: (§1)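 Sequenced MiSeq chips were the platform: E. coli RNA polymerase transcribed barcoded ribozyme variants on them in situ, and a hybridised Cy3 probe tracked these at 37 °C. After glucosamine-6-phosphate (40 μM to 10 mM) in HEPES/KCl/Mg(OAc)2 buffer was flowed in, tiles were imaged over ~14 h. Signals normalised to baseline and to non-cleaving reference variants were reduced to per-tile medians and fit to one- or two-exponential decays to obtain kobs. kcat and KM were derived through weighted Michaelis–Menten fits across concentrations.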

Variants of B1 are the subject of series [2]. The series can be described thus: self-cleavage kobs at 40 uM GlcN6P; higher = faster cleavage; RNA array. Put shortly:
as §1

Variants of B1 are the subject of series [3]. The series can be described thus: self-cleavage kobs at 2500 uM GlcN6P; higher = faster cleavage; RNA array. The gist of the method:
as §1

Variants of B1 are the subject of series [4]. The series can be described thus: self-cleavage kobs at 10000 uM GlcN6P; higher = faster cleavage; RNA array. Put shortly: as §1
Series [5] covers variants of B1. The series can be described thus: KM; higher = weaker cofactor use; RNA array. The gist of the method:
as §1

Series [6] covers variants of B1. The series can be described thus: self-cleavage kobs at 160 uM GlcN6P; higher = faster cleavage; RNA array. Put shortly: as §1
In series [7] the parent is B1. The series can be described thus: self-cleavage kobs at 640 uM GlcN6P; higher = faster cleavage; RNA array. Put shortly: as §1

By kcat is commonly meant the number of substrate molecules converted per active site and unit of time at saturation. Regarding A53U G59A, the kcat with glucosamine-6-phosphate [1] was 4.83e-05 ± 6.3e-06 s⁻¹. In the series with glucosamine-6-phosphate [2], the “self-cleavage kobs at 40 uM GlcN6P” value is less than 1e-05 s⁻¹. Moreover, the “self-cleavage kobs at 2500 uM GlcN6P” value with glucosamine-6-phosphate [3] stood at 3.5e-05 ± 1.2e-05 s⁻¹. For the same variant, in the series with glucosamine-6-phosphate [4], the “self-cleavage kobs at 10000 uM GlcN6P” value amounted to 4.2e-05 ± 8.2e-06 s⁻¹.

Broadly, the KM is the substrate concentration at which the rate is half of its maximum. On to A52G C67U, for which the turnover number (kcat) with glucosamine-6-phosphate [1] was determined as 0.000905 ± 0.00016 s⁻¹. Also, the KM with glucosamine-6-phosphate [5] stood at 2.37 ± 0.74 mM. In addition, the “self-cleavage kobs at 40 uM GlcN6P” value in the series with glucosamine-6-phosphate [2] came to 2.66e-05 ± 1.3e-05 s⁻¹. Besides, the “self-cleavage kobs at 160 uM GlcN6P” value in the series with glucosamine-6-phosphate [6] was 7.98e-05 ± 1.7e-05 s⁻¹. The “self-cleavage kobs at 640 uM GlcN6P” value in the series with glucosamine-6-phosphate [7] came out at 0.000166 ± 2.3e-05 s⁻¹. In addition, in the series with glucosamine-6-phosphate [3], the “self-cleavage kobs at 2500 uM GlcN6P” value came to 0.000524 ± 8.6e-05 s⁻¹. For the same variant, the “self-cleavage kobs at 10000 uM GlcN6P” value in the series with glucosamine-6-phosphate [4] amounted to 0.000728 ± 8.4e-05 s⁻¹.

Consider U47C U49G, for which the kcat with glucosamine-6-phosphate [1] stood at 0.000198 ± 1.4e-05 s⁻¹. Further, in the series with glucosamine-6-phosphate [5], the KM was 1.24 ± 0.22 mM. Besides, the “self-cleavage kobs at 640 uM GlcN6P” value with glucosamine-6-phosphate [7] was found to be 6.46e-05 ± 1.7e-05 s⁻¹. In addition, the “self-cleavage kobs at 2500 uM GlcN6P” value with glucosamine-6-phosphate [3] was found to be 0.000146 ± 3.2e-05 s⁻¹. In addition, the “self-cleavage kobs at 10000 uM GlcN6P” value with glucosamine-6-phosphate [4] is 0.000169 ± 3.6e-05 s⁻¹.

For G29U A53G, the kcat with glucosamine-6-phosphate [1] is 0.00448 ± 0.0019 s⁻¹. The “self-cleavage kobs at 40 uM GlcN6P” value with glucosamine-6-phosphate [2] is 0.000165 ± 2.5e-05 s⁻¹. Moreover, the “self-cleavage kobs at 160 uM GlcN6P” value with glucosamine-6-phosphate [6] is 0.000262 ± 5.4e-05 s⁻¹. In the series with glucosamine-6-phosphate [7], the “self-cleavage kobs at 640 uM GlcN6P” value was 0.000805 ± 0.00012 s⁻¹. Further, in the series with glucosamine-6-phosphate [3], the “self-cleavage kobs at 2500 uM GlcN6P” value was 0.0021 ± 0.00029 s⁻¹. In the series with glucosamine-6-phosphate [4], the “self-cleavage kobs at 10000 uM GlcN6P” value amounted to 0.00417 ± 0.00059 s⁻¹.

As for G32A U55A, the kcat with glucosamine-6-phosphate [1] is 0.00351 ± 0.00053 s⁻¹. For the same variant, in the series with glucosamine-6-phosphate [5], the KM stood at 3.54 ± 0.69 mM. Further, the “self-cleavage kobs at 40 uM GlcN6P” value with glucosamine-6-phosphate [2] worked out at 5.08e-05 ± 9.5e-06 s⁻¹. The “self-cleavage kobs at 160 uM GlcN6P” value with glucosamine-6-phosphate [6] is 0.00014 ± 1.7e-05 s⁻¹. In addition, the “self-cleavage kobs at 640 uM GlcN6P” value with glucosamine-6-phosphate [7] was found to be 0.000541 ± 5.3e-05 s⁻¹. In addition, the “self-cleavage kobs at 2500 uM GlcN6P” value with glucosamine-6-phosphate [3] was found to be 0.00144 ± 0.00022 s⁻¹. Also, the “self-cleavage kobs at 10000 uM GlcN6P” value with glucosamine-6-phosphate [4] turned out to be 0.00261 ± 0.00038 s⁻¹.

For the variant A14C G29U, in the series with glucosamine-6-phosphate [1], the kcat was found to be 0.000857 ± 0.00017 s⁻¹. The KM with glucosamine-6-phosphate [5] was 1.65 ± 0.55 mM. In addition, in the series with glucosamine-6-phosphate [2], the “self-cleavage kobs at 40 uM GlcN6P” value came out at 4.05e-05 ± 1.2e-05 s⁻¹. For the same variant, in the series with glucosamine-6-phosphate [6], the “self-cleavage kobs at 160 uM GlcN6P” value turned out to be 5.99e-05 ± 1.3e-05 s⁻¹. Besides, in the series with glucosamine-6-phosphate [7], the “self-cleavage kobs at 640 uM GlcN6P” value is 0.000267 ± 3.9e-05 s⁻¹. Besides, the “self-cleavage kobs at 2500 uM GlcN6P” value in the series with glucosamine-6-phosphate [3] was determined as 0.000556 ± 8.5e-05 s⁻¹. Moreover, the “self-cleavage kobs at 10000 uM GlcN6P” value with glucosamine-6-phosphate [4] came to 0.000697 ± 0.0001 s⁻¹.

With C10U A39U, the kcat in the series with glucosamine-6-phosphate [1] is 1.59e-05 ± 5e-07 s⁻¹. The Michaelis constant (KM) with glucosamine-6-phosphate [5] was found to be 6.31 ± 0.46 mM. Also, the “self-cleavage kobs at 40 uM GlcN6P” value in the series with glucosamine-6-phosphate [2] is less than 1e-05 s⁻¹. Moreover, the “self-cleavage kobs at 160 uM GlcN6P” value with glucosamine-6-phosphate [6] is less than 1e-05 s⁻¹. In addition, in the series with glucosamine-6-phosphate [7], the “self-cleavage kobs at 640 uM GlcN6P” value was less than 1e-05 s⁻¹.

In the case of U65G U69G, in the series with glucosamine-6-phosphate [1], the kcat was 6.55e-05 ± 6.1e-06 s⁻¹. Besides, the “self-cleavage kobs at 160 uM GlcN6P” value with glucosamine-6-phosphate [6] came out at 4.06e-05 ± 1.8e-05 s⁻¹. For the same variant, the “self-cleavage kobs at 640 uM GlcN6P” value with glucosamine-6-phosphate [7] was found to be 3.94e-05 ± 1.3e-05 s⁻¹. For the same variant, the “self-cleavage kobs at 2500 uM GlcN6P” value in the series with glucosamine-6-phosphate [3] stood at 6.29e-05 ± 1.2e-05 s⁻¹. Moreover, the “self-cleavage kobs at 10000 uM GlcN6P” value with glucosamine-6-phosphate [4] was determined as 6.56e-05 ± 1.1e-05 s⁻¹.

Turning to A12C G38C, the kcat with glucosamine-6-phosphate [1] was 1.42e-05 ± 5.2e-06 s⁻¹.

In the case of A39G G66A, the kcat in the series with glucosamine-6-phosphate [1] was determined as 0.0379 ± 0.019 s⁻¹. The “self-cleavage kobs at 40 uM GlcN6P” value in the series with glucosamine-6-phosphate [2] is 0.000706 ± 0.00011 s⁻¹. Moreover, the “self-cleavage kobs at 160 uM GlcN6P” value with glucosamine-6-phosphate [6] stood at 0.00437 ± 0.0011 s⁻¹. The “self-cleavage kobs at 640 uM GlcN6P” value with glucosamine-6-phosphate [7] is 0.00601 ± 0.001 s⁻¹. In the series with glucosamine-6-phosphate [3], the “self-cleavage kobs at 2500 uM GlcN6P” value was found to be 0.0223 ± 0.0067 s⁻¹. In addition, in the series with glucosamine-6-phosphate [4], the “self-cleavage kobs at 10000 uM GlcN6P” value is 0.0342 ± 0.0078 s⁻¹.

U49A U55A: the kcat in the series with glucosamine-6-phosphate [1] came to 3.61e-05 ± 1.5e-06 s⁻¹. The KM with glucosamine-6-phosphate [5] came to 5.97 ± 0.61 mM. For the same variant, the “self-cleavage kobs at 10000 uM GlcN6P” value with glucosamine-6-phosphate [4] is 2.26e-05 ± 9.3e-06 s⁻¹.

As for G32U U55G U56A, the kcat in the series with glucosamine-6-phosphate [1] is 0.000802 ± 4.9e-05 s⁻¹. The KM with glucosamine-6-phosphate [5] stood at 5.53 ± 0.45 mM. The “self-cleavage kobs at 640 uM GlcN6P” value with glucosamine-6-phosphate [7] is 8.29e-05 ± 1.1e-05 s⁻¹. Further, the “self-cleavage kobs at 2500 uM GlcN6P” value with glucosamine-6-phosphate [3] was determined as 0.000255 ± 4.3e-05 s⁻¹. Besides, the “self-cleavage kobs at 10000 uM GlcN6P” value in the series with glucosamine-6-phosphate [4] is 0.000509 ± 0.00011 s⁻¹.

On to G13C A14U, for which, in the series with glucosamine-6-phosphate [1], the kcat turned out to be 0.000311 ± 2.1e-05 s⁻¹. Besides, the KM in the series with glucosamine-6-phosphate [5] turned out to be 2.1 ± 0.32 mM. In the series with glucosamine-6-phosphate [7], the “self-cleavage kobs at 640 uM GlcN6P” value is 6.86e-05 ± 1.5e-05 s⁻¹. Also, the “self-cleavage kobs at 2500 uM GlcN6P” value with glucosamine-6-phosphate [3] came to 0.000186 ± 3e-05 s⁻¹. Moreover, the “self-cleavage kobs at 10000 uM GlcN6P” value in the series with glucosamine-6-phosphate [4] amounted to 0.00025 ± 3.1e-05 s⁻¹.

A15U G32A: the kcat with glucosamine-6-phosphate [1] is 0.00116 ± 0.00015 s⁻¹. In the series with glucosamine-6-phosphate [5], the KM is 4.44 ± 0.85 mM. For the same variant, the “self-cleavage kobs at 640 uM GlcN6P” value with glucosamine-6-phosphate [7] was found to be 0.000153 ± 2.9e-05 s⁻¹. In addition, the “self-cleavage kobs at 2500 uM GlcN6P” value with glucosamine-6-phosphate [3] is 0.000388 ± 9.4e-05 s⁻¹. Also, the “self-cleavage kobs at 10000 uM GlcN6P” value in the series with glucosamine-6-phosphate [4] amounted to 0.00082 ± 0.00016 s⁻¹.
